# Measurements from patent publication US20260028421A1 (JIANGSU HENGRUI PHARMACEUTICALS, published 2026).
# Like-named read-outs stand apart in the source and are kept apart here.
# B1: 1608-BsAb (bispecific antibody)
# chain 1: DIQLTQSPSSLSASVGDRVTITCRASESVDYYGSSLLQWYQQKPGKAPKLLIYAASKLASGVPSRFSGSGSGTDFTLTISSLQPEDFATYYCQQTRKAYTFGQGTKLEIKGGGSGGGGEVQLVESGGGLVQPGGSLRLSCAASGFTFSDYYMTWVRQAPGKGLEWVAFIRNQARGYTSDHNPSVKGRFTISRDNAKNSLYLQMNSLRAEDTAVYYCARDRPSYYVLDYWGQGTTVTVSSGCPPCPAPEAAGAPSVFLFPPKPKDTLMISRTPEVTCVVVDVSHEDPEVKFNWYVDGVEVHNAKTKPREEQYNSTYRVVSVLTVLHQDWLNGKEYKCKVSNKALPAPIEKTISKAKGQPREPQVCTLPPSREEMTKNQVSLWCLVKGFYPSDIAVEWESNGQPENNYKTTPPVLDSDGSFFLYSKLTVDKSRWQQGNVFSCSVMHEALHNHYTQKSLSLSPG
# chain 2: DIQMTQSPSSLSASVGDRVTITCTSSQSLFNVRSQKNYLAWYQQKPGKAPKLLIYWASTRESGVPSRFSGSGSGTDFTLTISSLQPEDFATYYCKQSYDLFTFGGGTKVEIKGGGGSGGGGEVQLVESGGGLVQPGGSLRLSCAASGFTFSSYWMHWVRQAPGKGLEWIGEIKPSNELTNVHEKFKDRFTISVDKAKNSAYLQMNSLRAEDTAVYYCTRTITTTEGYWFFDVWGQGTLVTVSSGCPPCPAPEAAGAPSVFLFPPKPKDTLMISRTPEVTCVVVDVSHEDPEVKFNWYVDGVEVHNAKTKPREEQYNSTYRVVSVLTVLHQDWLNGKEYKCKVSNKALPAPIEKTISKAKGQPREPQVYTLPPCREEMTKNQVSLSCAVKGFYPSDIAVEWESNGQPENNYKTTPPVLDSDGSFFLVSKLTVDKSRWQQGNVFSCSVMHEALHNHYTQKSLSLSPG
# B2: M42 CHI (antibody, human IgG1, kappa, V domains shown)
# VH: QIQLKQSGPGLVQPSQSLSITCTVSGFSLTSYAVHWVRQSPGKGLEWLGVIWTGGNTRSNAAFMSRLTITKDNSKSQVFFKMNSLQADDTAIYFCAKNSLLDYAMDYWGQGTSVTVSS
# VL: ENVLTQSPVIMSASPGEKVTMTCRASSFVGSGYLHWYQQKSGASPKLWIYSTSKLASGVPARFSGSGSGTSFFLTISRVEIEDAAAYYCQQSSGYPLTFGGGSKLEIKR
# notes: chimeric
# B3: 81 L3H1-2 (N103QN106Q) (bispecific antibody)
# heavy 1: not shown
# light 1: not shown
# heavy 2: EVQLVQSGAEVKKPGASVKVSCKASGYTFTDHNMNWVKQAPGQRLEWMGVMNPKFGTINYNQKFKDKATITRDTSASTAYMELSSLRSEDTAVYYCARDNYPNYFDYWGQGTTVTVSSGGGGSSGAPRFLTRPKASVVSVGKDATLSCQIVGNPFPQVSWEKDKQPVTAGVRFRLAQDGDLYRLKILDLQLSDSGQYVCRARNAHGEAFACLGLQVDAEADKTHTCPPCPAPEAAGGPSVFLFPPKPKDTLMISRTPEVTCVVVDVSHEDPEVKFNWYVDGVEVHNAKTKPREEQYNSTYRVVSVLTVLHQDWLNGKEYKCKVSNKALPAPIEKTISKAKGQPREPQVCTLPPSREEMTKNQVSLSCAVKGFYPSDIAVEWESNGQPENNYKTTPPVLDSDGSFFLVSKLTVDKSRWQQGNVFSCSVMHEALHNHYTQKSLSLSPGK
# light 2: DIQLTQSPSFLSASPGDRVTITCSASSSVNYMYWYQQKPGSSPKSWIYRTSNLASGVPSRFSGSGSGTEYTLTISSLQPEDFATYYCQQYHDYPPTFGGGTKVEIKGGGGSGIPPKIECLPIDISIDEGKVLTVASAFTGEPTPEVTWSTGGRKIHSQEQGRFHIENTDDSTTLTIKDVQKQDGGLYTLTLRNEFGSDSATVNIHIRSI
# B4: 146 L1H1-2 (bispecific antibody)
# heavy 1: not shown
# light 1: not shown
# heavy 2: EFQLVQSGAEVKKPGASVKVSCKASGYSFTDYNMNWVRQAPGQRLEWMGLINPKYGTTNYNQKFKGRVTLTVDQSSSTAYMELSSLRSEDTAVYYCARDNYPAWFAYWGQGTTVTVSSGGGGSSGAPRFLTRPKASVVSVGKDATLSCQIVGNPFPQVSWEKDKQPVTAGVRFRLAQDGDLYRLKILDLQLSDSGQYVCRARNAHGEAFACLGLQVDAEADKTHTCPPCPAPEAAGGPSVFLFPPKPKDTLMISRTPEVTCVVVDVSHEDPEVKFNWYVDGVEVHNAKTKPREEQYNSTYRVVSVLTVLHQDWLNGKEYKCKVSNKALPAPIEKTISKAKGQPREPQVCTLPPSREEMTKNQVSLSCAVKGFYPSDIAVEWESNGQPENNYKTTPPVLDSDGSFFLVSKLTVDKSRWQQGNVFSCSVMHEALHNHYTQKSLSLSPGK
# light 2: EIVLTQSPATLSLSPGERATLSCSASSSLNYMYWYQQKPGSSPRPWIYRTSQLASGVPARFSGSGSGTDYTLTISSLEPEDFAVYYCQQYHSYPPTFGGGTKVEIKGGGGSGIPPKIECLPIDISIDEGKVLTVASAFTGEPTPEVTWSTGGRKIHSQEQGRFHIENTDDSTTLTIKDVQKQDGGLYTLTLRNEFGSDSATVNIHIRSI
# notes: GUCY2C-CD3, Format 2, CD3 arm S107E
# B5: P3-C7 L7H1-3 (bispecific antibody)
# heavy 1: not shown
# light 1: DVVMTQTPLSLPVTPGEPASISCRSSQSLVHSNQNTYLHWYLQKPGQSPQLLIYKVSNRFSGVPDRFSGSGSRTDFTLKISRVEAEDVGVYYCSQSTHVPYTFGGGTKVEIKGGGGSGIPPKIECLPIDISIDEGKVLTVASAFTGEPTPEVTWSTGGRKIHSQEQGRFHIENTDDSTTLTIKDVQKQDGGLYTLTLRNEFGSDSATVNIHIRSI
# heavy 2: not shown
# light 2: not shown
# B6: M61 CHI (antibody, human IgG1, kappa, V domains shown)
# VH: EVQLQQSGPELVRPGASVKISCTASGYTITDYYMSWVKQSHGKSPEWIGDINPNNGGTSDNQKFKGKATLTVDKSSSTAYMEYRSLTSEDSAVYYCARGRGMVARYFDIWGTGTTVTVSS
# VL: EILLTQSPTTMAASPGEKITITCSASSSISSNFLHWYQEKPGFSPKLLIYRTSNLASGVPARFSGSGSGTSYSLTIGSMEAEDVATYYCQQGSGLPLTFGAGTKLELKR
# notes: chimeric
# Tests used:
# [1] = target: T1, Human GUCY2C protein on cells (HCT116/hGUCY2C, HT-55, T84, LS1034, LS174T) (human, UniProt P25092 24-1073); assay: flow cytometry on HCT116/hGUCY2C cells, R-PE goat anti-human IgG secondary antibody
# T1 construct: also called GUCY2C on the cell surface
# Experimental: Experiment 1: 1E5 cells resuspended in 1% BSA were added to the reaction wells, and the supernatant was removed after centrifugation. Diluted antibody of the corresponding concentration was added, and the mixture was incubated at room temperature for 30 min and then washed twice with 1% BSA. […] After the plate was washed twice with 10% BSA, fluorescence signals were read using a flow cytometer.
# hGUCY2C ECD-His [2] = target: T2, hGUCY2C ECD-His (human, UniProt P25092 24-430); assay: ELISA, antigen on streptavidin plate
# T2 construct: also called human GUCY2C protein
# Experimental: In this test example, the binding activity of the GUCY2C-CD3 bispecific antibodies for human GUCY2C was detected by ELISA. The specific procedures are as follows:
# The plate was coated by adding 100 ng of streptavidin (ACRO #STN-N5116) to the reaction wells and incubated overnight at 4° C. After the blocking with 1% BSA (PBS), 100 ng of hGUCY2C ECD-His was added, and the mixture was incubated at 37° C. for 1 h. After plate washing, the gradiently diluted antibody was added, and the mixture was incubated at 37° C. for 1 h. […] After plate washing, a substrate solution was added, and a stop solution was then added after sufficient color development to stop the reaction. The signal values at […] were read using a microplate reader.
# hGUCY2C ECD-His [3] = target: T2, hGUCY2C ECD-His; assay: SPR Biacore, antibody captured
# From the text: To test the affinity of the GUCY2C monoclonal antibodies of the present disclosure for GUCY2C, in this test example, the instruments Biacore 8K and Biacore T200 were used to detect the ability of the antibodies to bind to hGUCY2C-ECD-His (SEQ ID NO: 3). The specific method is as follows: The antibody was affinity-captured using a Protein A biosensor chip conjugated with an anti-human antibody, then a solution containing GUCY2C Protein flowed on the surface of the chip, and reaction signals were detected in real time with an instrument to obtain association and dissociation curves. After dissociation was completed for each cycle, the biosensor chip was washed with 10 mM glycine-hydrochloric acid (pH 1.5) for regeneration. Data fitting was performed using a 1:1 model.
# [4] = target: T1, Human GUCY2C protein on cells …; assay: flow cytometry on T84 cells, PE anti-human IgG Fc secondary antibody
# [5] = target: T1, Human GUCY2C protein on cells …; assay: cell-based or functional assay
# [6] = target: T1, Human GUCY2C protein on cells …; assay: cell-based or functional assay; remark: listed apart in the source
# [7] = target: T1, Human GUCY2C protein on cells …; assay: cell-based or functional assay; remark: listed apart in the source
Binder,EC50 (hGUCY2C ECD-His [2]),Kd (hGUCY2C ECD-His [3]),koff (hGUCY2C ECD-His [3]),kon (hGUCY2C ECD-His [3]),EC50 (read off the curve) [4],also measured
B1,1230 pM,–,–,–,–,EC50 (read off the curve) [1]: ~1000 pM
B2,–,8990 pM,0.000335 s⁻¹,37300 M⁻¹ s⁻¹,~500 pM,–
B3,–,–,–,–,–,"IC50 (nM), killing of LS174T with PBMC [5]: 0.16 nM"
B4,60 pM,–,–,–,–,"IC50 (nM), killing of HT-55(++) with PBMC [6]: 0.56 nM; IC50 (nM), killing of LS174T(+) with PBMC [6]: 0.49 nM; IC50 (nM), killing of LS1034(+++) with PBMC [6]: 0.17 nM"
B5,–,–,–,–,–,"IC50 (nM), killing of LS174T with PBMC [7]: 0.49 nM"
B6,–,4490 pM,0.000228 s⁻¹,50800 M⁻¹ s⁻¹,~2000 pM,–
